Experimental data from the nanobody polyreactivity screen of Harvey et al. (2022).

Test: yeast display, Sf9 membrane polyspecificity reagent, FACS + sequencing; frameworks hold sequencing errors
Procedure, shortened: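 Using colony PCR, genes from sorted yeast display clones were amplified, then sequenced on MiSeq at 2 × 250 and filtered by CDR length. The clones had been stained with 10% biotinylated, detergent-solubilized Sf9 membrane reagent for 1 hour at 4 °C and sorted by FACS into low and high (top ~1%) gates on anti-HA and streptavidin fluorescence. Polyreactivity labels come from the gate of origin.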

| Sequence | polyreactivity (PSR sort gate) |
| --- | --- |
| QVQLVESGGGLVQAGGSLRLSCAASGSTFLTNAMGWYRQAPGKERELVVAIRTSGGSTYYADSVKGRFTISRDNAKNTVYLQMNSLKPEDTAFYYCAASYRRRRFSEYYYWGQGTQVTVSS | high polyreactivity |
| QVQLVESGGGLVQAGGSLRLSCAASGSTFLTNVMGWYRPAPGQERELVAAITIGGSTNYADSVKGRFTISRDNAKNTVYLQMNILKPEDTAVYYCATDIRRKPRYVDYEYWGQGTQVTVSS | low polyreactivity |
| QVQLVESGGGLVQAGGSLRLSCAASGSTFLVYAMGWYRQAPGKERELVAAITQIDGSTYYADSVKGRFTISRDNAKNTVYLQMNSLKPEDTAVYYCAARYFWTYEYDYWGQGTQVTVSS | low polyreactivity |
| QVQLVESGGGLVQAGGSLRLSCAASGSTFLYNAMGWYRQAPGKEREFVAAISGSGGTTYYADSVKGRFTISRDNAKNTVYLQMNSLNPEDTAVYYCAVSQSWYWYYASDYWGQGTQVTVSS | low polyreactivity |
| QVQLVESGGGLVQAGGSLRLSCAASGSTFLYVMGWYRQAPGKERELVAAISESGGSTYYADSVKGRFTISRDNAKNTLYLQMNSLKPEDTAVYYCAADLPTGLQYRYYRVDYWGQGTQVTVSS | low polyreactivity |
| QVQLVESGGGLVQAGGSLRLSCAASGSTFLYYAMGWYRQAPGKERELVAAITSSGGRTYFADSVKGRFTISRDNAQNTVYLQMNSLQPEDTAVYYCARGWPRREQSEYDYWGQGTQVTVSS | high polyreactivity |
| QVQLVESGGGLVQAGGSLRLSCAASGSTFLYYDMGWYRQAPGKERELVATITRGGSTYYADSVKGRFTISRDNAKNTVYLQMNSLKPEDTAVYYCAAYRWGILSAYYYAWYGYWGQGTQVTVSS | low polyreactivity |
| QVQLVESGGGLVQAGGSLRLSCAASGSTFLYYTMGWYRQAPGKERELVAAITSGGDTNYADSVKGRFTISRDNAKNTVYLQINSLKPEDTAVYYCNAEYTWSGTKIYTYKYDYWGQGTQVTVSS | low polyreactivity |
| QVQLVESGGGLVQAGGSLRLSCAASGSTFNAYAMGWYRQAPGKERELVAAISSSGGRTHYADSVKGRFTISRDNAKNTVYLQMNSLKPEDTAVFYCNVGKRFVRNDYWGQGTQVTVSS | high polyreactivity |
| QVQLVESGGGLVQAGGSLRLSCAASGSTFNDNAMGWYRQAPGKERELVAGISYSGGSTYYADSVKGRFTISRDNAKNTVYLQMNSLKPEDTAVYYCNADVTGLSQFGYWGQGTQVTVSS | low polyreactivity |
| QVQLVESGGGLVQAGGSLRLSCAASGSTFNDYVMGWYRQAPGKERELVAAISRSGGSTYYADSVKGRFTISRDNAKNTVYLQMNSLKPEDTAVYYCAAASPGPWRYDYWGQGTQVTVSS | high polyreactivity |
| QVQLVESGGGLVQAGGSLRLSCAASGSTFNFNAMGWYRQAPRKERELVAAISSSGGSTYYADSVKGRFTISRDNAKNTVYLQMNSLKPEDTAVYYCATVRRKSPLYYYWGQGTQVTVSS | high polyreactivity |
| QVQLVESGGGLVQAGGSLRLSCAASGSTFNFYAMGWARQAPGKERELVAAIRQSSGRTYYADSVKGRFTISRDNAKNTVYLQMNSLKPEDTAVYYCNARVPRYNGGSTMEYWGQGTQVTVSS | high polyreactivity |
| QVQLVESGGGLVQAGGSLRLSCAASGSTFNGYVMGWYRQAPGKERELVAAISRSGGSTYYADSVKGRFTISRDNAKNNVYLQMYSLKPEDTAVYSCAKGGYQHYWGQGTQVTVSS | high polyreactivity |
| QVQLVESGGGLVQAGGSLRLSCAASGSTFNGYVMGWYRQAPGKERELVAAISRSGGSTYYADSVKGRFTISRDNAKNTVYLQMYSLKPEDTAVYYCAKGGYQHYWGQGTQVTVSS | high polyreactivity |
| QVQLVESGGGLVQAGGSLRLSCAASGSTFNINVMGWYRQAPGKERELVASISTGDITYYADSVKGRFTISRDNAKNTVYLQMNSLKPEDTAVYYCNAEDDLYWWVWYAVGEEYWGQGTQVTVSS | low polyreactivity |
| QVQLVESGGGLVQAGGSLRLSCAASGSTFNIYAMGCYRQSPGKERELVAAIRSGGSTYYADSVKGRFTISRDNAKNTVYLQMNSLKPEDTAVYYCGAAVKRALDYWGQGTQVTVSS | high polyreactivity |
| QVQLVESGGGLVQAGGSLRLSCAASGSTFNIYVMGWYRQAPGKERELVAAITTSGRTYYADSVKGRFTISRDNAKNTVYLQMNSLKPEDTAVYYCAAVPVRYRYSYGYYYWGQGTQVTVSS | high polyreactivity |
| QVQLVESGGGLVQAGGSLRLSCAASGSTFNKYAMGWYRQAPGKERELVAAISSSGGSTYYADSVKGRFTISRDNAKNTVYLQMNSLKPEDTAVYYCNARRTYSVPARRYYYWGQGTQVTVSS | high polyreactivity |
| QVQLVESGGGLVQAGGSLRLSCAASGSTFNLYAMGWYRQAPGKERELVAAISDGDSSTYYADSVKGRFTISRDNAKNTVYLQMNSLKPEDTAVYYCAADFSVYTEEDDSWGQGTQVTVSS | low polyreactivity |
| QVQLVESGGGLVQAGGSLRLSCAASGSTFNRNAMGWYRQAPGKERELVAAISWRGDSTSYADSVKGRFTISRDNAKNTVYLQMNSLKPEDTAVSYCAADYYYGQGQPDEDNYWGQGTQVTVSS | low polyreactivity |
| QVQLVESGGGLVQAGGSLRLSCAASGSTFNRYAMGWYRPAPGKERELVASISWGGGRTYYADSVKGRFTISRDNAKNTVDFQLNSLKPEDTAVYFCATDRYDRHYEVDYWGQGTQVTVSS | low polyreactivity |

| Sequence | polyreactivity (PSR sort gate) |
| --- | --- |
| QVQLVESGGGLVQAGGSLRLSCAASGSTFNSYTMGWYRKAPGKERELVAAITLSGGRTYYADSVKGRFTISRDNAKNTVYLQMNSLKPEDTAVYYCAAYCRASWERDYWGQGTQVTVTS | low polyreactivity |
| QVQLVESGGGLVQAGGSLRLSCAASGSTFNTNAMGWYRQAPGKERELVAAITWRTGSTYYADSVKGRFTISRDNAKNTVYLQMNSLKPEDTAVYYCAADYFWYRSGRYHYWGQVTQVTVSS | high polyreactivity |
| QVQLVESGGGLVQAGGSLRLSCAASGSTFNVNAMGWYSQAPGKERELVATISSGGSTNYADSVKGRFTISRDNAKNTVYLQMNSLKPEDTAVYYCAKEYGSIIPYDYWGQGTQVTVSS | low polyreactivity |
| QVQLVESGGGLVQAGGSLRLSCAASGSTFNVYAMGWYRQAPGKERELVAGIRDSDGSTNYADSVKARFTISRDNAKNTVYLQMNSLKQEDPAVYYCAADLYDINWSVWLDYWGQGTQVTVSS | low polyreactivity |
| QVQLVESGGGLVQAGGSLRLSCAASGSTFNVYGMGCYRQAPGKERELVAAINRDGITYADSVKGRFTISRDNAKNTVYLQMNSLKPEDTAVYYCAAGYSPYKGSAGYYWGQGTQVTVSS | low polyreactivity |
| QVQLVESGGGLVQAGGSLRLSCAASGSTFNYNAMGWYRQAPGKERELVAAIRSSDGSTHYADSVKGRFTISRDNAKNTVYLQMNSLKPEDTAVYYCAADYDVWWRDDYWGQGSQVTVSS | low polyreactivity |
| QVQLVESGGGLVQAGGSLRLSCAASGSTFNYNPMGWYRQAPGKERELVAAISSSGGSTYYADSVKGRFTISRDNAKNTVYLQMNSLKPEDTAVYYCATGGSSRVRTEGDYWGQGTQVTVSS | low polyreactivity |
| QVQLVESGGGLVQAGGSLRLSCAASGSTFNYYAMGWYRQAHGTERELFAAITYRGGSTYYADSVKGRFTISRDNAKNTVYLHMNLLKPEDTAVYYCNARQVRYMYAQDEGYDYWGLGTQVTVSS | high polyreactivity |
| QVQLVESGGGLVQAGGSLRLSCAASGSTFPANAMGWYRQAPGKERELVATISWSGGRTYYADSVKGRFTISRDNAKNTVYLQMNSLKPEDTAVYYCAANGHGRVYFGGGNWGQGTQVTVSS | high polyreactivity |
| QVQLVESGGGLVQAGGSLRLSCAASGSTFPAYAMGWYRQAPGKERELVAAINTSGGNTYYADSVKGRFTISRDNAKNTVYLQMNSLKPEDTAVYYCAADYKARYSEKFDYWGQGTQVTVSS | low polyreactivity |
| QVQLVESGGGLVQAGGSLRLSCAASGSTFPFYAMGWYRQAPGKERELVAAITASVGNTYYADSVKGRFTISRDNAKNTVYLQMNSLKPEDTAVYYCNADEWYTYIPDFDYWGQGTQVTVSS | low polyreactivity |
| QVQLVESGGGLVQAGGSLRLSCAASGSTFPGNAMGGSRQAAGKERELVASISGGGDSTYYADSVKGRFTISRDNAKNTVYLQMNSRKPEDTAVYYCAADYRQEPGYTGYYYWGQGTQVTVSS | low polyreactivity |
| QVQLVESGGGLVQAGGSLRLSCAASGSTFPGNAMGGYRQAPGKERELVAAINWSGDSTYYADSVKGRFTISRDNAKNTVYLQMNSLKPEDTAVYYCAAYGDGYYYWGQGTQVTVSS | low polyreactivity |
| QVQLVESGGGLVQAGGSLRLSCAASGSTFPGNAMGWYRQAPGKERELVAAIRDRGTSTYYADSVKGRFTISRDNAKNTVYLQMNSLNPEDTAVYYCAARSFTADLGYYWGQGTQVTVSS | high polyreactivity |
| QVQLVESGGGLVQAGGSLRLSCAASGSTFPGYAMGWYRQAPGKDRELVAAISKRGGSTRYADSVKGRFTISRDKAKNTVYLQMNSLKPEDTAVYYCNAVYTKRYKYYYTSGYWGQGTQVTVSS | high polyreactivity |
| QVQLVESGGGLVQAGGSLRLSCAASGSTFPGYAMGWYRQAPGKERELVAAISWSGGNTYYADSVKGRFTISRDNAKNTVYLQMNSLKPEDTAVYYCNAAGRRYKFDYWGQGTQVSVSS | high polyreactivity |
| QVQLVESGGGLVQAGGSLRLSCAASGSTFPGYAMGWYRQAPGKERELVASITSSGDNTYYADSVKGRFTISRDNAKNSVYLQMNSLKPEDTAVYYCAAPTKYRSRRYYWGQGTQVTVSS | high polyreactivity |
| QVQLVESGGGLVQAGGSLRLSCAASGSTFPHNPMGCYRQAPGKERELVAAISSIGVRTYYADSVKGRFTISRDNAKNTVYLQMNSLKPEDTAVYYCAARQSQGDRYYYWGHGTQVTVSS | high polyreactivity |
| QVQLVESGGGLVQAGGSLRLSCAASGSTFPKNAMGWYRQAPGKERELVAAINTGGSTYYADSVKGRFTISLDNAKYTVYLQMNSLKPEDTAVYYCAARDNYHRDVGHPYDYWGQGTQVTVSS | low polyreactivity |
| QVQLVESGGGLVQAGGSLRLSCAASGSTFPKNVMGWYRQAPGKERELVAAINYSGTSTYYADSVKGRFTISRDNAKNTVYLQMNSLKPEDTAVYYCAARFPLVRYNYWGQGTQVTVSS | high polyreactivity |
| QVQLVESGGGLVQAGGSLRLSCAASGSTFPKYAMGWYRQAPGKERELVASISVTTGSTYYADSVKGRFTISRDNAKNTVYLQMNSLKPEDTAVYYCAVGRTVAHRFIAGDYWGQGTQVTVSS | high polyreactivity |
